Legend:
[1] = biological target: endogenous RORα of mouse cerebellar neurons and cerebellum (UniProt P51448); test: co-immunoprecipitation (IP: FLAG, IB: RORα), quantified output band corrected by input band; conditions: primary cerebellar neurons, transient expression; n = 3; parent: est. 3.2; read off a plot
[2] = biological target: endogenous RORα of mouse cerebellar neurons and cerebellum (UniProt P51448); test: co-immunoprecipitation (IP: RORα, IB: FLAG), quantified output band corrected by input band; conditions: primary cerebellar neurons, transient expression; n = 3; parent: est. 0.42; read off a plot

Sequence of UniProt P51448 (P51448 whole entry): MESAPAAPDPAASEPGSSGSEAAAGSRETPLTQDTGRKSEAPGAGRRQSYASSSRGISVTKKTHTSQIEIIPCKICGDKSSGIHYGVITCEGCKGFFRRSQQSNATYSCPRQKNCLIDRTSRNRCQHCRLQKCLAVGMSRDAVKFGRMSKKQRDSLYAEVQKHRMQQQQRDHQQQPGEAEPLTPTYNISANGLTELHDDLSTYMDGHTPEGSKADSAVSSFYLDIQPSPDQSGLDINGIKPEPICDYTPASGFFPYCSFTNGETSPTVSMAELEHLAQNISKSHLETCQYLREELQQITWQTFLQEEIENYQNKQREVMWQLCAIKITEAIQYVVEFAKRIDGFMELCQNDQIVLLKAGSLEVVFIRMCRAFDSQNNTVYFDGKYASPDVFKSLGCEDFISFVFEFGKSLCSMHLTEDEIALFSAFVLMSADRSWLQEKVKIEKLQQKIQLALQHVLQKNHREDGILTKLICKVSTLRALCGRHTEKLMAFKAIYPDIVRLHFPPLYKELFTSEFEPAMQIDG

response [1]: 3.1
response [2]: 0.4
Substance: Human YAP2 WT (FLAG-YAP2 WT) WQDP>AQDA (first WW domain)
